Laboratory results as given in patent publication US20030232412.

Biological target: T1, His-tagged PprB
T1 chain: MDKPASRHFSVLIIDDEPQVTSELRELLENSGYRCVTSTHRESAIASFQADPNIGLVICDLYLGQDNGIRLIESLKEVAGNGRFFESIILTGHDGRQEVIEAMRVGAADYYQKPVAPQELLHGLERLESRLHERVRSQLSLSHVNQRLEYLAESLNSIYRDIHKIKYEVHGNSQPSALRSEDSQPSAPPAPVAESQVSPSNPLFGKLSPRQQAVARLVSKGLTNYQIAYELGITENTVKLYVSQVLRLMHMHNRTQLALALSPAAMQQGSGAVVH

B1: His-tagged PprA (protein)
chain: MFEFSRSSSAEAERPEPFSQEGPALWSASLRSWDLCFEMDEQDRVIRVGGRQAYRLQCAHGLGEQPRPFAEYLERRAPGAPTLAGLRRGERLDLTLRSDAAAPLTCRFQPMQPLDGLGRSLLLGMDISDLNWQSDSQQHQLQSLSLGKLILSRLRHVSHGHLAEAVQEILESLSGAFQMQAIALLLGDGKGFCTVFASHVRPGSDSLLRPPLQLADDDLREGAGARLLRRGEGASTLLRQIGEDALYLVPATMRGGRLGALLVRPMSLEQLAQGPAPQDWQYLAELLANQVADRCELHEQHDSSRKLGLLQEMIGGGWWRYWAEQELFELAPALHDSLGLTGEYRRVPLEHLQGLLQPADADELGLRLRASLRSGQALAQDLCLRQPDSRGERRWLRIEGRPLGRGSALGLSGVLLDISEGRRQEERAQAAHARLRSLIDSAPVVIYVQRVEQGHLVPEFYSESASNLLGLDLQGQSWQALAERVHPDDLEAFFARGRELLREGRVKTRYRLADGQGNWHWLYDEAKLLRDAQGLPSEAVGLWLDVTEQHLAAQRIAESEERYRVLVEDSPALICRYTADLVLTYVNRTFADSLATSPERLVGRRLDEWLAAEDASALRARLLGSPREGASEVPELRFNLPGQRFLWLVWAERPLFDARGELCEVQAVGRDNTPVRRAQQQLAQGAKMASLGEMVSGLAHEVKQPLHVLRMTLFNMRQRMNSVGLDGDYLGEKLERMDAQVLRVDRLVSHLGVFSRKSALEALPFDPYAAFEGALGLLGEGLRQHAIEVECPAPTQRMVVRGQADQLEQVIINLLANARDALLGNPGLASRRVRLEQVACREPGWVELHVHDNGGGIEPLLLERIFEPFFTTKAEGKGTGLGLSVSHDLVRNMGGSLTAANQGEGALFVVRLPLAAPAEAGG
- in vitro phosphorylation assay ([gamma-32P]ATP, SDS-PAGE, autoradiography): PprA was phosphorylated; PprB was not. Notably, however, when PprA was mixed with PprB, PprB became highly phosphorylated.
